Our source for the Kd values is patent US20220380409A1.

One may read the pKd as the Kd on a negative log10 scale, so that one unit is a factor of ten. Low values mean a large Kd, high ones a small Kd.

The target in this experiment is PfLDH protein (UniProt Q27743). Description: -.

pKd: −log10 of the molar value.

As for primary ligand hevwh, the pKd was 5.30.
